Test results reported in the supplement of paper PMC10065799, “High-throughput profiling of sequence recognition by tyrosine kinases and SH2 domains using bacterial peptide display” (eLife, 2023).

How the values were obtained:
[1] = target: FGFR1 (UniProt P11362); assay: phosphorylation enrichment, bacterial display (enrichment ratio); higher = better substrate or ligand; peptides without Tyr show the background
[2] = target: Jak2 (UniProt O60674); assay: as above
[3] = system: c-Src; assay: as above
[4] = system: c-Abl (mouse); assay: as above
[5] = target: Fyn (UniProt P06241); assay: as above
[6] = target: Hck (UniProt P08631); assay: as above
[7] = target: FGFR3 (UniProt P22607); assay: as above
Sequence of FGFR3 (P22607 whole entry, looked up): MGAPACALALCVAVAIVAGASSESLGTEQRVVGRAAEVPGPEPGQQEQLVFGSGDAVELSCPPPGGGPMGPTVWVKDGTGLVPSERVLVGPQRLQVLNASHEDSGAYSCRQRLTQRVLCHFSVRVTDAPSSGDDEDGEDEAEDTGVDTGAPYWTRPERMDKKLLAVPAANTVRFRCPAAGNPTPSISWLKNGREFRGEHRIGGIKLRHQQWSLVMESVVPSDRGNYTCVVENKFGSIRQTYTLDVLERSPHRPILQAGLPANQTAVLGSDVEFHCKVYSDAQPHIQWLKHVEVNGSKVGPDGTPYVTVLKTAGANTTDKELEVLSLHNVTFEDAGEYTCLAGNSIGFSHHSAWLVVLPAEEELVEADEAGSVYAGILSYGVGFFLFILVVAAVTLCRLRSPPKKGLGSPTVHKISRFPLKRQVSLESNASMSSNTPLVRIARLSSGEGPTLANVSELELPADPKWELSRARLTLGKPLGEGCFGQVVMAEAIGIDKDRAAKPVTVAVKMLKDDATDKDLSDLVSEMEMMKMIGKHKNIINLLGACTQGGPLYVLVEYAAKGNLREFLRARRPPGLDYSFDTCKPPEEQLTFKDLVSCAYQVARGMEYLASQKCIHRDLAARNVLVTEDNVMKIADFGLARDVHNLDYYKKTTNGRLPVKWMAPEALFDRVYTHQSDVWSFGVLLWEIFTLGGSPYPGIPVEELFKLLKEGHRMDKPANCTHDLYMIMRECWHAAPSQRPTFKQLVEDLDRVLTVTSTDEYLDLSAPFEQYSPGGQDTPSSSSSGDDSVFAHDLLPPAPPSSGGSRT

[8] = target: EPHB1 (UniProt P54762); assay: as above
Sequence of EPHB1 (P54762 whole entry, looked up): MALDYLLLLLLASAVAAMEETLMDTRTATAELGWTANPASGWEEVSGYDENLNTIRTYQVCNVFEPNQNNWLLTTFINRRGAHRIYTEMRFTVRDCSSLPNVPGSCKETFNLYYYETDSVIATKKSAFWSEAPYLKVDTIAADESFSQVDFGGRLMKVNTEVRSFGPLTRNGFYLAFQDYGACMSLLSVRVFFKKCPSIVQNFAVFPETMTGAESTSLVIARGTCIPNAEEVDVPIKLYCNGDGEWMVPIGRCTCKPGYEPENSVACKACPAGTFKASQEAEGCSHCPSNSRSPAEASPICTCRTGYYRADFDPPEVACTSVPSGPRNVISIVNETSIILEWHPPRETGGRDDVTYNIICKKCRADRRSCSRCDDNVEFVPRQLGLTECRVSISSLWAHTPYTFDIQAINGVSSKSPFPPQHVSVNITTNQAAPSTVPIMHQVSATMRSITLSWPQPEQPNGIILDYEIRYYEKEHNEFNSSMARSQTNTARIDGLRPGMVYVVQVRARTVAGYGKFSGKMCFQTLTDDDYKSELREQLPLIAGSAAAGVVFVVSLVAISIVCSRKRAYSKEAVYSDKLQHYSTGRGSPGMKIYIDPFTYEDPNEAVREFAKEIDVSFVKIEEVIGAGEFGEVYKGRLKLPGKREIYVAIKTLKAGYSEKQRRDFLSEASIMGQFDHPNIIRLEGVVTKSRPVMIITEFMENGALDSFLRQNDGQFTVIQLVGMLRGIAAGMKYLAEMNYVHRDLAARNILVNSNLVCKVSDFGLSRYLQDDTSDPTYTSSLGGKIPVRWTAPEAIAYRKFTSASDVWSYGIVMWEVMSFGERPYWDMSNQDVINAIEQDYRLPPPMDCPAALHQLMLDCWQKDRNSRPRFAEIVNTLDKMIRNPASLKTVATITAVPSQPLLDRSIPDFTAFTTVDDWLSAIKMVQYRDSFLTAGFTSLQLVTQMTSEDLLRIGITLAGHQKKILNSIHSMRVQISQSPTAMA

[9] = target: MERTK (UniProt Q12866); assay: as above
[10] = system: Fer (mouse); assay: as above
[11] = target: EPHB2 (UniProt P29323); assay: as above
Sequence of EPHB2 (P29323 whole entry, looked up): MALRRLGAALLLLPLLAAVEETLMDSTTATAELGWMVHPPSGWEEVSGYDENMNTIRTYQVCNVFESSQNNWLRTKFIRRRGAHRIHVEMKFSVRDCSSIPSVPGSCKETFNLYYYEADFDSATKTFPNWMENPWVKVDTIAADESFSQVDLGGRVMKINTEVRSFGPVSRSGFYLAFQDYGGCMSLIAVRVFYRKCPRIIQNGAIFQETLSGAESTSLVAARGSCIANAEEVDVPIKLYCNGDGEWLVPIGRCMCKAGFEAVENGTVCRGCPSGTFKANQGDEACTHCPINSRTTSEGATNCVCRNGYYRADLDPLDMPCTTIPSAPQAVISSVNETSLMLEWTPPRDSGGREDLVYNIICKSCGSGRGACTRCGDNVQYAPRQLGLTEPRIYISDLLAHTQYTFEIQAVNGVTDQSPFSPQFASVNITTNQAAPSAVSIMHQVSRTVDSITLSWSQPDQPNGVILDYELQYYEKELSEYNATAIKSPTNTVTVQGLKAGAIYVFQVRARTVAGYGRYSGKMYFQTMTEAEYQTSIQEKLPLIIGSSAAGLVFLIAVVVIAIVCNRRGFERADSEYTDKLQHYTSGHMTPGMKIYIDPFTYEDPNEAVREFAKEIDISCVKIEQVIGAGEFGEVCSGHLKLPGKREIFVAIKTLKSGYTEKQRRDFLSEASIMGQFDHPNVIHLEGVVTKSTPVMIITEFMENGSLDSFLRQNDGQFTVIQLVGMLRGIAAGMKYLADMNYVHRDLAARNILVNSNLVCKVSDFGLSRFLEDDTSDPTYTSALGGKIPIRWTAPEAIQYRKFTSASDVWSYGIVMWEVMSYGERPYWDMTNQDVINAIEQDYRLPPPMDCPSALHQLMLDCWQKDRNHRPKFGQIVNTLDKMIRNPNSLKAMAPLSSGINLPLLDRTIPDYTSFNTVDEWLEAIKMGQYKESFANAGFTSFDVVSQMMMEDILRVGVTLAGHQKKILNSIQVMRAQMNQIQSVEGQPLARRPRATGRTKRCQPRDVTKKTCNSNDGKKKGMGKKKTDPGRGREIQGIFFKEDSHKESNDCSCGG

[12] = target: Fes (UniProt P07332); assay: as above
Sequence of Fes (P07332 whole entry, looked up): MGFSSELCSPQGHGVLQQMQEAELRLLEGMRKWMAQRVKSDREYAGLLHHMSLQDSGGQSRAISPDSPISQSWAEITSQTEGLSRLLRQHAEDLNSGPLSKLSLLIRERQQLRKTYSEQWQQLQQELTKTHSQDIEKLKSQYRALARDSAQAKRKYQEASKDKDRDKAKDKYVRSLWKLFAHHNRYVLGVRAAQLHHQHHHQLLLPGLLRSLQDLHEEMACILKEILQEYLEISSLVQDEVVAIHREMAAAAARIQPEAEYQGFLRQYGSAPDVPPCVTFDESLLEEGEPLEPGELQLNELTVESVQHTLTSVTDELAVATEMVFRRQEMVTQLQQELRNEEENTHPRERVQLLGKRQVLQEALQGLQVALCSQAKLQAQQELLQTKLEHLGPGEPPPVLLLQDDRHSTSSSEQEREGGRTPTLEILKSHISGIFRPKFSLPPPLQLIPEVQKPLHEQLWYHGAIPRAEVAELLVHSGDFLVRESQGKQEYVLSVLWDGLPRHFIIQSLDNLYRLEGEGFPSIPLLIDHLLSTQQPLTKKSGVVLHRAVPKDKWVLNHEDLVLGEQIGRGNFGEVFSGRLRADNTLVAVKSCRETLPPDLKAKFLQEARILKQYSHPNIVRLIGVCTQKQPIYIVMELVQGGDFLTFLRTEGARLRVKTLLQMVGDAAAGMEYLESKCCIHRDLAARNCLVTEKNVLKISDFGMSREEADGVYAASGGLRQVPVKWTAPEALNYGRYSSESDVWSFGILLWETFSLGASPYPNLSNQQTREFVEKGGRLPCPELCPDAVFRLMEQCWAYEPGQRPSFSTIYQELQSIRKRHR

[13] = system: AncSZ; assay: as above
[14] = target: c-Src SH2; assay: SH2 binding enrichment of the phosphorylated peptide, bacterial display (enrichment ratio); higher = better substrate or ligand; peptides without Tyr show the background
[15] = target: Grb2 SH2 (UniProt P62993); assay: as above
Sequence of Grb2 SH2 (P62993 whole entry, looked up): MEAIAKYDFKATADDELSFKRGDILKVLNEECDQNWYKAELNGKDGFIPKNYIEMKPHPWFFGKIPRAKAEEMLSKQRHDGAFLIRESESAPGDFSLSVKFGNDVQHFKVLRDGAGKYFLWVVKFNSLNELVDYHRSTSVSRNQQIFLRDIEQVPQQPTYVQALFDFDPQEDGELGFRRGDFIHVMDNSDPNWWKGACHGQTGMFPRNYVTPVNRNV

[16] = target: SHP2-C SH2; assay: as above
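Wherever SH2 binding enrichment of the phosphorylated peptide, bacterial display is given: peptide library displayed on the E. coli surface as eCPX fusions, selected cells deep-sequenced, score is each peptide's frequency after selection divided by its frequency in the input.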
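Wherever phosphorylation enrichment, bacterial display is given: 11-residue human phosphosite peptides and single-mutation variants displayed on the E. coli surface, counted by deep sequencing, each peptide's frequency after selection divided by its frequency in the unselected input library; frequency after pTyr selection over input frequency; kinase dosed for 20-30% of maximal phosphorylation in three min.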

Sequence of Jak2 (O60674 whole entry, looked up): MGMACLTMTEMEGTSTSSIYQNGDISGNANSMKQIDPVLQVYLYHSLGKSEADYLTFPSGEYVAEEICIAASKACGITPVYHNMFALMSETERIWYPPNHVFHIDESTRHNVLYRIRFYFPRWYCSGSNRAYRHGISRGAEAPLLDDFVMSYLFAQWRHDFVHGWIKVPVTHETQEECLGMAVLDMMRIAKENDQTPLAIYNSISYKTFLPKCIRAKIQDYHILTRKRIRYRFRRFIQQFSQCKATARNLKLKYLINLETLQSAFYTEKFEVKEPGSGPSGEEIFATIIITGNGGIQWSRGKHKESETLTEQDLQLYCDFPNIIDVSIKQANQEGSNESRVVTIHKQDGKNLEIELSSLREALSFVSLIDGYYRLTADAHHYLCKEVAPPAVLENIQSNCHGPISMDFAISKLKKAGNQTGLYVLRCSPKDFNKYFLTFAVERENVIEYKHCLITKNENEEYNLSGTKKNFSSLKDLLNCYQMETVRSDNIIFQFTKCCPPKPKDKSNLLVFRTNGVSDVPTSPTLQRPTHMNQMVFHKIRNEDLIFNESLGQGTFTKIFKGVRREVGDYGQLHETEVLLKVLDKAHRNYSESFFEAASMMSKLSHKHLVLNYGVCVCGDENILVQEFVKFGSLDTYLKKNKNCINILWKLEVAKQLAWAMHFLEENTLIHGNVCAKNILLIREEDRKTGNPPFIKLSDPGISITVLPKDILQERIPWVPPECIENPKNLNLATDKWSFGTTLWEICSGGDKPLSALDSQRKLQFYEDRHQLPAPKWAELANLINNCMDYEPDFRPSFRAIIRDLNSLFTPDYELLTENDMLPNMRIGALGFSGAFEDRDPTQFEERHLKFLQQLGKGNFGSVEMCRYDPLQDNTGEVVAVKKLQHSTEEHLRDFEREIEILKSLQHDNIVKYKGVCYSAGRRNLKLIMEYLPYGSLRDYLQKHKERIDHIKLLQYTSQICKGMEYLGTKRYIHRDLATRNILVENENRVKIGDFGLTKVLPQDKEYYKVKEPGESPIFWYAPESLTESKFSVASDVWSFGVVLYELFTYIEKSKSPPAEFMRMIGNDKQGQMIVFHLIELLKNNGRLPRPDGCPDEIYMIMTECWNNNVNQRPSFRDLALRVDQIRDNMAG

Q: With PGNIVYSSLCG [BCOR_Y90] as the sequence, how does the phosphorylation enrichment [1] read?
A: 0.892

Q: What about the phosphorylation enrichment [2] of the same sequence?
A: 1.65

Q: And the phosphorylation enrichment [3]?
A: 5.73

Q: And the phosphorylation enrichment [4]?
A: 1.83

Q: And the phosphorylation enrichment [5]?
A: 3.13

Q: And the phosphorylation enrichment [6]?
A: 5.25

Q: What about the phosphorylation enrichment [7] of the same sequence?
A: 1.02

Q: And the phosphorylation enrichment [8]?
A: 0.914

Q: What about the phosphorylation enrichment [9] of the same sequence?
A: 1.6

Q: What about the phosphorylation enrichment [10] of the same sequence?
A: 1.18

Q: What about the phosphorylation enrichment [11] of the same sequence?
A: 0.987

Q: And the phosphorylation enrichment [12]?
A: 1.62

Q: What about the phosphorylation enrichment [13] of the same sequence?
A: 1.38

Q: What about the SH2 binding enrichment [14] of the same sequence?
A: 0.579

Q: What about the SH2 binding enrichment [15] of the same sequence?
A: 0.875

Q: And the SH2 binding enrichment [16]?
A: 1.51

Q: Which results are given for PHQTIYGALMI [FGF23_Y70_S71G]?
A: phosphorylation enrichment [1]: 0.57; phosphorylation enrichment [2]: 0.721; phosphorylation enrichment [3]: 5.96; phosphorylation enrichment [4]: 1.36; phosphorylation enrichment [5]: 10.6; phosphorylation enrichment [6]: 7.87; phosphorylation enrichment [7]: 0.838; phosphorylation enrichment [8]: 0.679; phosphorylation enrichment [9]: 0.796; phosphorylation enrichment [10]: 3.41; phosphorylation enrichment [11]: 0.711; phosphorylation enrichment [12]: 1.07; phosphorylation enrichment [13]: 0.849; SH2 binding enrichment [14]: 0.341; SH2 binding enrichment [15]: 0.75; SH2 binding enrichment [16]: 0.599

Q: Which results are given for PIDLYYLMDLS [ITGB2_Y131]?
A: phosphorylation enrichment [1]: 17.4; phosphorylation enrichment [2]: 8.57; phosphorylation enrichment [3]: 6.67; phosphorylation enrichment [4]: 1.09; phosphorylation enrichment [5]: 8.8; phosphorylation enrichment [6]: 7.58; phosphorylation enrichment [7]: 18.6; phosphorylation enrichment [8]: 13.5; phosphorylation enrichment [9]: 13.3; phosphorylation enrichment [10]: 9.5; phosphorylation enrichment [11]: 12.5; phosphorylation enrichment [12]: 4.2; phosphorylation enrichment [13]: 6.05; SH2 binding enrichment [14]: 0.67; SH2 binding enrichment [15]: 0.922; SH2 binding enrichment [16]: 0.911

Q: For PIPAAYNRFDQ [CDC73_Y290_YF], which phosphorylation enrichment [1] is on record?
A: 0.456

Q: And the phosphorylation enrichment [2]?
A: 0.833

Q: And the phosphorylation enrichment [3]?
A: 0.303

Q: And the phosphorylation enrichment [4]?
A: 0.357

Q: And the phosphorylation enrichment [5]?
A: 0.451

Q: And the phosphorylation enrichment [6]?
A: 0.446

Q: And the phosphorylation enrichment [7]?
A: 0.643

Q: What about the phosphorylation enrichment [8] of the same sequence?
A: 0.643

Q: And the phosphorylation enrichment [9]?
A: 0.509

Q: And the phosphorylation enrichment [10]?
A: 0.485

Q: And the phosphorylation enrichment [11]?
A: 0.426

Q: And the phosphorylation enrichment [12]?
A: 0.778

Q: And the phosphorylation enrichment [13]?
A: 0.513

Q: And the SH2 binding enrichment [14]?
A: 0.579

Q: What about the SH2 binding enrichment [15] of the same sequence?
A: 0.792

Q: What about the SH2 binding enrichment [16] of the same sequence?
A: 0.648

Q: Which results are given for PKDSAYVTWEP?
A: phosphorylation enrichment [1]: 2.14; phosphorylation enrichment [2]: 1.36; phosphorylation enrichment [3]: 2.02; phosphorylation enrichment [4]: 1.16; phosphorylation enrichment [5]: 2.17; phosphorylation enrichment [6]: 2.38; phosphorylation enrichment [7]: 1.45; phosphorylation enrichment [8]: 1.03; phosphorylation enrichment [9]: 1.39; phosphorylation enrichment [10]: 2.5; phosphorylation enrichment [11]: 0.798; phosphorylation enrichment [12]: 1.4; phosphorylation enrichment [13]: 1.66; SH2 binding enrichment [14]: 0.487; SH2 binding enrichment [15]: 0.938; SH2 binding enrichment [16]: 0.675

Q: What does the source list for PKGTGCIKTEL [STAT1_Y701_Y701C]?
A: phosphorylation enrichment [1]: 0.558; phosphorylation enrichment [2]: 0.808; phosphorylation enrichment [3]: 0.457; phosphorylation enrichment [4]: 1.04; phosphorylation enrichment [5]: 0.443; phosphorylation enrichment [6]: 0.689; phosphorylation enrichment [7]: 0.759; phosphorylation enrichment [8]: 0.774; phosphorylation enrichment [9]: 0.74; phosphorylation enrichment [10]: 0.726; phosphorylation enrichment [11]: 0.54; phosphorylation enrichment [12]: 1.27; phosphorylation enrichment [13]: 1.05; SH2 binding enrichment [14]: 0.586; SH2 binding enrichment [15]: 0.772; SH2 binding enrichment [16]: 0.73

Q: Which phosphorylation enrichment [1] does the source give for PLDEEYFTLQI [TP53_Y327_G325E] here?
A: 4.65

Q: What about the phosphorylation enrichment [2] of the same sequence?
A: 2.57

Q: What about the phosphorylation enrichment [3] of the same sequence?
A: 2.69

Q: And the phosphorylation enrichment [4]?
A: 1.13

Q: And the phosphorylation enrichment [5]?
A: 1.91

Q: And the phosphorylation enrichment [6]?
A: 1.2

Q: And the phosphorylation enrichment [7]?
A: 4.54

Q: What about the phosphorylation enrichment [8] of the same sequence?
A: 1.02

Q: What about the phosphorylation enrichment [9] of the same sequence?
A: 0.941

Q: And the phosphorylation enrichment [10]?
A: 0.691

Q: And the phosphorylation enrichment [11]?
A: 0.888

Q: And the phosphorylation enrichment [12]?
A: 2.25

Q: And the phosphorylation enrichment [13]?
A: 2.96

Q: And the SH2 binding enrichment [14]?
A: 0.551

Q: What about the SH2 binding enrichment [15] of the same sequence?
A: 0.891

Q: What about the SH2 binding enrichment [16] of the same sequence?
A: 1.12

Q: With PLDGEYFTLRI [TP53_Y327_Q331R] as the sequence, how does the phosphorylation enrichment [1] read?
A: 6.1

Q: What about the phosphorylation enrichment [2] of the same sequence?
A: 2.88

Q: And the phosphorylation enrichment [3]?
A: 3.13

Q: What about the phosphorylation enrichment [4] of the same sequence?
A: 1.93

Q: And the phosphorylation enrichment [5]?
A: 2.55

Q: And the phosphorylation enrichment [6]?
A: 1.76

Q: And the phosphorylation enrichment [7]?
A: 5

Q: And the phosphorylation enrichment [8]?
A: 1.04

Q: And the phosphorylation enrichment [9]?
A: 0.45

Q: And the phosphorylation enrichment [10]?
A: 0.971

Q: And the phosphorylation enrichment [11]?
A: 1.04

Q: And the phosphorylation enrichment [12]?
A: 2.19

Q: What about the phosphorylation enrichment [13] of the same sequence?
A: 2.77

Q: And the SH2 binding enrichment [14]?
A: 0.596

Q: And the SH2 binding enrichment [15]?
A: 0.767

Q: What about the SH2 binding enrichment [16] of the same sequence?
A: 0.539
